Measurements reported in patent publication US9890407B2, “Method for synthesizing cellulose in vitro” (University of Virginia Patent Foundation, priority 2013, dated 2018).
Changes are numbered by the printed parent chain. In names and notes the source's numbering stands.

Key:
[1] = tested on: cellulose synthesis; experiment: Cellulose synthesis activity of inverted membrane vesicles / PLs containing BcsA, BcsB or truncated BcsB; type: biochemical, Rhodobacter sphaeroides; details: for catalytic activity (HMW polymer formation): IMVs, 60 min 37° C., with c-di-GMP
Procedure: FIG. 1A-1C (also referred to as Example 1, FIG. 1): BcsA and BcsB are necessary for cellulose synthesis. (FIG. 1A) Inverted membrane vesicles containing either BcsA, BcsB, or both subunits were incubated for 60 min at 37° C. in the presence and absence of c-di-GMP and 0.25 μCi UDP-[^3H]-Glc. The synthesized polymer was purified by descending paper chromatography and quantified by scintillation counting. The amount of product obtained is shown relative to the product formed from IMVs containing BcsA and BcsB. Control reactions were performed with IMVs derived from cells containing an empty pET28a vector or in the absence of c-di-GMP or the presence of 20 mM EDTA. Results are shown in light and dark gray for components from Ec and Rs, respectively. (FIG. 1B) immuno-blotting of IMVs containing BcsA and BcsB. BcsA and BcsB were expressed with C-terminal poly-histidine- and FLAG-tags, respectively, and the equivalent amounts of IMVs used for activity assays were analyzed under non-reducing conditions by western blotting. […]
FIG. 6A-6C (also referred to as Example 1, FIG. 6): The membrane-associated domain of BesB is required for cellulose synthesis. […] IMVs containing wild-type BesA and the indicated BesB constructs were tested for cellulose synthase activity by quantifying the accumulation of radioactively labeled cellulose. […] (FIG. 6C) Western analysis of the analyzed IMVs and PLs. […] The equivalent amounts of IMVs used for activity assays were used to quantify the BcsA and BcsB expression levels. Vesicles containing WT and the BcsA-B-S684-r complex were analyzed on separate gels. […]
Gram-negative bacteria transport cellulose across the inner and outer bacterial membranes. […] To identify the complex components required for cellulose synthesis and translocation across the inner bacterial membrane, we expressed BcsA and BcsB from Escherichia coli (Ec) K12 and Rhodobacter sphaeroides (Rs) in E. coli C43 (28), prepared inverted membrane vesicles (IMVs), and analyzed them for cellulose synthesis activity. […]

[2] = tested on: cellulose synthesis; type: biochemical, Rhodobacter sphaeroides

## BcsA-B-S684: BcsA complexed with BcsB fragment N-terminally truncated to start at Ser684
[1]; purified truncated complex in PLs
  catalytic activity after reconstitution into PLs: catalytically active

B1: E371A (protein)
chain: MGTVRAKARSPLRVVPVLLFLLWVALLVPFGLLAAAPVAPSAQGLIALSAVVLVALLKPFADKMVPRFLLLSAASMLVMRYWFWRLFETLPPPALDASFLFALLLFAVETFSISIFFLNGFLSADPTDRPFPRPLQPEELPTVDILVPSYNEPADMLSVTLAAAKNMIYPARLRTVVLCDDGGTDQRCMSPDPELAQKAQERRRELQQLCRELGVVYSTRERNEHAKAGNMSAALERLKGELVVVFDADHVPSRDFLARTVGYFVEDPDLFLVQTPHFFINPDPIQRNLALGDRCPPENEMFYGKIHRGLDRWGGAFFCGSAAVLRRRALDEAGGFAGETITEDAETALEIHSRGWKSLYIDRAMIAGLQPATFASFIQQRGRWATGMMQMLLLKNPLFRRGLGIAQRLCYLNSMSFWFFPLVRMMFLVAPLIYLFFGIEIFVATFEEVLAYMPGYLAVSFLVQNALFARQRWPLVSEVYEVAQAPYLARAIVTTLLRPRSARFAVTAKDETLSENYISPIYRPLLFTFLLCLSGVLATLVRWVAFPGDRSVLLVVGGWAVLNVLLVGFALRAVAEKQQRRAAPRVQMEVPAEAQIPAFGNRSLTATVLDASTSGVRLLVRLPGVGDPHPALEAGGLIQFQPKFPDAPQLERMVRGRIRSARREGGTVMVGVIFEAGQPIAVRETVAYLIFGESAHWRTMREATMRPIGLLHGMARILWMAAASLPKTARDFMDEPARRRRRHEEPKEKQAHLLAFGTDFSTEPDWAGELLDPTAQVSARPNTVAWGSNHHHHHHKLHHHHHH
[2]; no c-di-GMP, IMVs and PLs
  increase of catalytic activity in the absence of c-di-GMP compared to wild type enzyme: approximately 6 fold

B2: R580A (protein)
chain: B1 chain with A372E, R581A
[2]; formation of cellulose or UDP, with and without 30 μM c-di-GMP
  dependence of catalytic activity on c-di-GMP: constitutively active

B3: BcsB: bacterial cellulose synthase B, periplasmic membrane-anchored subunit (SEQ ID NO:3) (protein)
chain: MDMRLLPFLFLGTLASMAAAQDAPMIVIEGLTSEEPQASPDAVAEAVPAAEVAPWIIPLRPLAETAQVGPLFRLQGQQARAAFRLFLPTEAVGGTLTLAQRSSIDILPESSQIIVRMNDQEIGRFTPRQFGALGAVTMPLGEAVRAGDNLVTIEAQHRHRIYCGADAEFDLWTEVDLSQSGVALPAAAIGTEPTSFIAALTAQAESGRPVEIRTPTPPDEATLRTLAQALGRPLPDEALPLALSKPWSAETGPTYARITLLPSDADRVSIRRGGDGAVVLVLEHPPEGSPNASLVADLLGATPTLPPPTLPQIPPGRVVTLADMGVDTILTDNRYFNRDIDFQLPDDWLLLASQKAQIGIDYGFAGGLPEGALLLVKVNGTTVRMLPLDRDAAPVKPRLDIRFPARLLHPGPNRLSFESVIPGNPPDQPCPASAGDLMQVLSSTDLEVPPSPRMQMADMARDLAQVTPASVHPATPDGLARTLPFMAAFREVPDAAPVDLTVAGLHDIATVPLNEEGLTPRLLALTLLPSTVSRLVERPATPAGPPANALAPLGAAPGEGVMPPLVESNWSDRAQTFVQATLQPVIQTVRRMLRPGDGNLAEWLATRKGTAMLLAPEPGKLWVILGPEAEPARVAEALAMAPRSPGGPRGQVAVLGSDGRWSSWSKPGLLPELREPVSLDNVRSVVGNVASARPPLLLGGMLGLAWISAAIAVGFVLRTRRKGLK
modifications: Rhodobacter sphaeroides
[1]
  catalytic activity (HMW polymer formation): catalytically inactive

B4: BcsA: bacterial cellulose synthase A, catalytic subunit (SEQ ID NO:1) (protein)
chain: MTVRAKARSPLRVVPVLLFLLWVALLVPFGLLAAAPVAPSAQGLIALSAVVLVALLKPFADKMVPRFLLLSAASMLVMRYWFWRLFETLPPPALDASFLFALLLFAVETFSISIFFLNGFLSADPTDRPFPRPLQPEELPTVDILVPSYNEPADMLSVTLAAAKNMIYPARLRTVVLCDDGGTDQRCMSPDPELAQKAQERRRELQQLCRELGVVYSTRERNEHAKAGNMSAALERLKGELVVVFDADHVPSRDFLARTVGYFVEDPDLFLVQTPHFFINPDPIQRNLALGDRCPPENEMFYGKIHRGLDRWGGAFFCGSAAVLRRRALDEAGGFAGETITEDAETALEIHSRGWKSLYIDRAMIAGLQPETFASFIQQRGRWATGMMQMLLLKNPLFRRGLGIAQRLCYLNSMSFWFFPLVRMMFLVAPLIYLFFGIEIFVATFEEVLAYMPGYLAVSFLVQNALFARQRWPLVSEVYEVAQAPYLARAIVTTLLRPRSARFAVTAKDETLSENYISPIYRPLLFTFLLCLSGVLATLVRWVAFPGDRSVLLVVGGWAVLNVLLVGFALRAVAEKQQRRAAPRVQMEVPAEAQIPAFGNRSLTATVLDASTSGVRLLVRLPGVGDPHPALEAGGLIQFQPKFPDAPQLERMVRGRIRSARREGGTVMVGVIFEAGQPIAVRETVAYLIFGESAHWRTMREATMRPIGLLHGMARILWMAAASLPKTARDFMDEPARRRRRHEEPKEKQAHLLAFGTDFSTEPDWAGELLDPTAQVSARPNTVAWGSN
modifications: Rhodobacter sphaeroides
[1]
  catalytic activity (HMW polymer formation): catalytically inactive
